Assay results as given in the supplement of paper PMC9112550, “Optimization of the antimicrobial peptide Bac7 by deep mutational scanning” (BMC Biology, 2022).

Test system: Escherichia coli TOP10
Assay: shrunken log2 fold change of peptide-encoding DNA abundance (4.5 h post-induction vs induction); higher = less antimicrobial activity (less host growth inhibition)
Conditions: time post-induction: 4.5 h; library: site-saturation at positions 5, 18, 19, 20
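Further: peptides expressed intracellularly from a pBAD plasmid library in pooled LB shake-flask culture, induced with 0.3% L-arabinose, DNA abundance read by NGS, three biological replicates, DESeq2 with apeglm shrinkage.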

Sequence | shrunken log2 fold change
RRIRARPPRLPRPRPRPDLRPRP | 0.0309
RRIRARPPRLPRPRPRPDMPPRP | 0.0755
RRIRARPPRLPRPRPRPDMQPRP | 0.984
RRIRARPPRLPRPRPRPDNDPRP | -0.196
RRIRARPPRLPRPRPRPDPNPRP | 0.531
RRIRARPPRLPRPRPRPDQKPRP | 0.442
RRIRARPPRLPRPRPRPDRLPRP | -0.0424
RRIRARPPRLPRPRPRPDTMPRP | 0.0783
RRIRARPPRLPRPRPRPDVSPRP | 0.106
RRIRARPPRLPRPRPRPDVYPRP | 0.152
RRIRARPPRLPRPRPRPDWDPRP | 0.341
RRIRARPPRLPRPRPRPECWPRP | 1.97
RRIRARPPRLPRPRPRPEDMPRP | 0.816
RRIRARPPRLPRPRPRPEDNPRP | 0.132
RRIRARPPRLPRPRPRPEDSPRP | 0.32
RRIRARPPRLPRPRPRPEGQPRP | 1.2
RRIRARPPRLPRPRPRPEIAPRP | 0.992
RRIRARPPRLPRPRPRPEIDPRP | 1.36
RRIRARPPRLPRPRPRPEIIPRP | 0.396
RRIRARPPRLPRPRPRPEKSPRP | 1.01
RRIRARPPRLPRPRPRPELKPRP | 0.488
RRIRARPPRLPRPRPRPEMCPRP | 1.17
RRIRARPPRLPRPRPRPEMGPRP | 1.12
RRIRARPPRLPRPRPRPENSPRP | 0.172
RRIRARPPRLPRPRPRPEPMPRP | 0.44
RRIRARPPRLPRPRPRPEPNPRP | 1.16
RRIRARPPRLPRPRPRPEQSPRP | 0.119
RRIRARPPRLPRPRPRPERVPRP | 0.577

Sequence | shrunken log2 fold change
RRIRARPPRLPRPRPRPESFPRP | 0.807
RRIRARPPRLPRPRPRPESLPRP | 0.938
RRIRARPPRLPRPRPRPETYPRP | 0.0388
RRIRARPPRLPRPRPRPEVDPRP | 0.935
RRIRARPPRLPRPRPRPEVSPRP | 0.431
RRIRARPPRLPRPRPRPEWMPRP | 0.252
RRIRARPPRLPRPRPRPEWTPRP | 0.591
RRIRARPPRLPRPRPRPEYMPRP | -0.276
RRIRARPPRLPRPRPRPEYVPRP | 0.0744
RRIRARPPRLPRPRPRPFAIPRP | -0.239
RRIRARPPRLPRPRPRPFAQPRP | 0.213
RRIRARPPRLPRPRPRPFCEPRP | 0.303
RRIRARPPRLPRPRPRPFCNPRP | -0.0929
RRIRARPPRLPRPRPRPFCTPRP | 0.0721
RRIRARPPRLPRPRPRPFELPRP | -0.146
RRIRARPPRLPRPRPRPFFHPRP | -0.0215
RRIRARPPRLPRPRPRPFHTPRP | -0.0492
RRIRARPPRLPRPRPRPFIWPRP | 0.00679
RRIRARPPRLPRPRPRPFMRPRP | 0.59
RRIRARPPRLPRPRPRPFMVPRP | -0.235
RRIRARPPRLPRPRPRPFNHPRP | -0.436
RRIRARPPRLPRPRPRPFNSPRP | -0.0353
RRIRARPPRLPRPRPRPFPQPRP | 0.512
RRIRARPPRLPRPRPRPFSEPRP | -0.122
RRIRARPPRLPRPRPRPFVSPRP | -0.00645
RRIRARPPRLPRPRPRPFVTPRP | -0.166
RRIRARPPRLPRPRPRPFVYPRP | -0.116
